Measurements taken from patent US20180155430A1.

Assays:
[1] = biological target: human PD-1 (Programmed Death-1) (human) (UniProt Q15116); assay: cell-based or functional assay
[2] = biological target: human PD-L1 (PD-ligand 1) (human) (UniProt Q9NZQ7); assay: cell-based or functional assay
Sequence of UniProt Q9NZQ7 (Q9NZQ7 19-290 limits assumed): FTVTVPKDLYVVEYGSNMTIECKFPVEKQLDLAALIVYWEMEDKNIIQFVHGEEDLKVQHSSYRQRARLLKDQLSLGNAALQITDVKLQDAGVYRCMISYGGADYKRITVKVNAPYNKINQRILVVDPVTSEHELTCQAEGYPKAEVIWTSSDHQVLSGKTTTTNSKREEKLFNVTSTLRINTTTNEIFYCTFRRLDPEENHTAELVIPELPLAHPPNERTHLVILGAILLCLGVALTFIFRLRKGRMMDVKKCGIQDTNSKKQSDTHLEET

Sequence of UniProt Q15116 (Q15116 other isoform, or with tags, fused parts or gaps limits assumed): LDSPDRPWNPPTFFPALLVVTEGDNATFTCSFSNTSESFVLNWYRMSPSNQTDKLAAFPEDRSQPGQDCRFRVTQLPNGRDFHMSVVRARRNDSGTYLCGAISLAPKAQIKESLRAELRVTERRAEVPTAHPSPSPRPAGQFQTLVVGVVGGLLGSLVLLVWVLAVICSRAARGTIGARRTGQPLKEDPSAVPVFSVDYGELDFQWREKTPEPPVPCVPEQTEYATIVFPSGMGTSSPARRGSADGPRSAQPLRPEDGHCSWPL

Molecule | expansion of HCV-specific CFSE-low tetramer+ CD8+ T cells, 6 days with cognate peptide and IL-2 [1] [fold] | expansion of HCV-specific CFSE-low tetramer+ CD8+ T cells, 6 days with cognate peptide and IL-2 [2] [fold] | fold increase in B*4201 TL9 tetramer+ CD8+ T cells, 6-day CFSE proliferation assay of human PBMC with TL9 peptide plus antibody (peptide alone: 4.8-fold) [2] [fold] | fold increase in frequency of EBV or CMV-specific CD8 T cells, 6-day CFSE assay, peptide plus antibody against peptide alone [2] [fold] | percentage of B*4201 TL9-specific CD8+ T cells after 6-day stimulation with peptide [2] [%]
anti-human PD-1 monoclonal antibody EH12 | 4 | – | – | – | –
anti-human PD-L1 monoclonal antibody 29E.2A3 (antibody, from another filing, mouse IgG2b, V domains shown) VH: EVQLQQSGPELVKPGASVKMSCKASGYTFTSYVMHWVKQKPGQGLEWIGYVNPFNDGTKYNEMFKGKATLTSDKSSSTAYMELSSLTSEDSAVYYCARQAWGYPWGQGTLVTVSA VL: DIVLTQSPASLAVSLGQRATISCRATESVEYYGTSLVQWYQQKPGQPPKLLIYAASSVDSGVPARFSGSGSGTDFSLTIHPVEEDDIAMYFCQQSRRVPYTFGGGTKLEIK | – | 4 | 10.3 | < 3.5 | 12.4
